Earlier results, collected in PMC8541618.
Where two headings read alike, the source gives them in different places.

Legend:
[1] = molecular target: VanRA (Enterococcus faecium) (UniProt Q06239)
[2] = molecular target: VanRA (Enterococcus faecium) (UniProt Q06239); remark: listed apart in the source

Sequence of UniProt Q06239 (Q06239 whole entry): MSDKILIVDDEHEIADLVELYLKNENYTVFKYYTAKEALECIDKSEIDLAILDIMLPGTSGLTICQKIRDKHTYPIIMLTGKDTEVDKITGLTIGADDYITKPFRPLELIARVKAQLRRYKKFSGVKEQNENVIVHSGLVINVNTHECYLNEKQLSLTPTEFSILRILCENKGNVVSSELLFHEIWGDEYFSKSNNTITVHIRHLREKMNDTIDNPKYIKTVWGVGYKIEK

For VanSA (from UniProt Q06240), the Kd [1] is given as 1.9 µM.
In the case of “VanSA cytosolic portion (from UniProt Q06240)”, the Kd [2] is listed as 6.8 µM.
